Measured values: the supplement of paper PMC12764529
± gives the half width of the 95% confidence interval.

What was measured:
[1] = folding stability dG unfold from trypsin proteolysis; higher = more stable
Outline: (§1)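 Designed mini-proteins (under 80 residues, no cysteine) in a PA-tagged cDNA display construct were digested with trypsin and chymotrypsin. Each protease was used at 11 concentrations (threefold dilutions) plus a no-protease condition, followed by sequencing. K50 was inferred by Bayesian fitting of sequencing counts, and unfolding free energy was derived against a sequence-predicted unfolded-state K50 and a shared folded-state K50, per protease or combined. Only designs with AlphaFold2 dimer inter-PAE above 15 were kept.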

[2] = folding stability dG unfold (combined trypsin and chymotrypsin); higher = more stable
Outline: as §1

[3] = folding stability dG unfold from chymotrypsin proteolysis; higher = more stable
Outline: as §1

Sequence | folding stability dG unfold [1] [kcal/mol] | folding stability dG unfold [2] [kcal/mol] | folding stability dG unfold [3] [kcal/mol]
SAGGPENARPVTFTVTLPDGDVVPITVTEHPDGTVTVTVTVLRFDGAEPVPATATITVPAEVVRRLFSAGGS [r16_470_TrMRF] | 2.15 ± 0.035 | 2.48 ± 0.034 | 2.636 ± 0.023
SAGGPEVKILSKSYNPEKNTVTYNLEVYYGGKKYGALAEIHYDPKTGKYTITVYYPDKPDYKETLTFNSAGG [r13_615_TrMRF] | 1.91 ± 0.077 | 2.58 ± 0.21 | 3.03 ± 0.079
SAGGPEVVLTVTVKVPPEMTPEEVAQRLADELRKKYPDLKVEVVSVEYDEETKEVTVTIRVTYAPPPSAGGS [r8_26_TrROS_Hall] | 4.97 ± 0.64 | 4.45 ± 0.14 | 4.05 ± 0.16
SAGGPFRIEDISIQRDPDNGKLTIIIPFPAPPGQEIKIKVRDPGNGKEKKFDMKVEPLPNGYLTMTISAGGS [r8_195_TrROS] | 1.82 ± 0.14 | 1.91 ± 0.21 | 2.17 ± 0.11
SAGGPFYLRIKIVDEDGKEITYMFPAPADEAEEEIEELLPGWPLKIDEVERFPGEPGYIMVTIKIPPNSAGG [r13_832_TrROS] | 1.63 ± 0.051 | 1.97 ± 0.12 | 2.07 ± 0.17
SAGGPGEEYKHPNGMAMRRDPENGKVEMRKVPPIPIEIKIEIDPALGWIRLSITIPNGKKIEFTFPFSAGGS [r16_453_TrROS] | 2.36 ± 0.052 | 3.32 ± 0.2 | 4.11 ± 0.32
SAGGPGMKMEPIAQIEFPGGRKITIHRMEMPNGNKMVNVNIMNPNGKTKTVMVPMGDIDEAIDALKLSAGGS [r16_588_TrROS] | 1.65 ± 0.036 | 1.29 ± 0.12 | 1.04 ± 0.07
SAGGPGTREVEITIPADELREEHPNLTDEELVEEVMELARGIAQEQGYPIKKVDITHDKDGWVTIKLSAGGS [r8_368_TrROS] | 0.383 ± 0.091 | 0.322 ± 0.16 | 0.152 ± 0.11
SAGGPGWQRIAKWEIPLPNGKDITIEPYYVNPNNNHYMYEIEIGDGKEIPFWVPPGDSPEDALDAILKSAGG [r13_470_TrROS] | -0.194 ± 0.2 | -0.118 ± 0.16 | -0.126 ± 0.32
SAGGPGWRTINIPVWFKPGDSLDEIEEKARELVDPIADRNGLDIEVNIEVERDPDGYYRFNVQITVPSAGGS [r16_279_TrROS] | 1.27 ± 0.097 | 1.96 ± 0.13 | 2.34 ± 0.071
SAGGPITITIKTKNGKELELKLPGIRSVQFNPDSVWIAFKFPDQYIMIQINPPNGKIMIQIMPPGQPISAGG [r13_392_TrROS] | 2.47 ± 0.097 | 3.18 ± 0.14 | 3.66 ± 0.053
SAGGPKITIMWPEGMPPEELENFLKKLNPNYKVEYRPMPPEDMKDMPPGDVVISIPFDGRYWYLRIKPSAGG [r13_649_TrROS] | 1.65 ± 0.048 | 1.88 ± 0.081 | 1.99 ± 0.095
SAGGPKKITIHITEMYRNKNGPYYYRVEIRDGGKPKEYNFPFDSPDEMLDNIEKLADELGLKVEIEPFSAGG [r13_750_TrROS] | 1.55 ± 0.06 | 1.88 ± 0.22 | 2.16 ± 0.16
SAGGPKWVIIIEIEIKPKNNGKEFEFTFVFPPGQTLDEIKSFIKEFAPPGHKVELKIEDIQLVPPDDSAGGS [r16_393_TrROS] | 2.2 ± 0.15 | 2.4 ± 0.12 | 2.41 ± 0.039
SAGGPLGNLTLDQIVDLVREAFPDLPVRVDVEPIDEETGYVRVTVEPPLPNGGTARAEFILPILPDDSAGGS [r16_564_TrMRF] | 0.787 ± 0.019 | 1.07 ± 0.076 | 1.26 ± 0.066
SAGGPLQIKVEPLNRDPKDGKREVRIEITFPEEDMKKNPENRQLAEYIAKSLAKEPGADKVEVDIHWSAGGS [r16_416_TrROS] | -0.0287 ± 0.056 | 0.274 ± 0.095 | 0.441 ± 0.081
SAGGPLRIHISIENPNGKTLTYQIPLPPGDPEEAVKEIADEMKERGGTITSIEIENGVITITVRIPPSAGGS [r16_662_TrROS] | 2.32 ± 0.059 | 2.8 ± 0.075 | 2.97 ± 0.046
SAGGPLTEEQLKEQAKQIKDQLAKEFADMNGFPVTEIDDVEVVPDGWISIEIEYPGMGMPYTITIPWSAGGS [r16_622_TrROS] | 0.887 ± 0.053 | 1.02 ± 0.095 | 1.02 ± 0.16
